Target: LmrR_V15aY
Experiment: SEC; purified LmrR_V15aY after affinity chromatography; conditions not shown (Fig. S2, ESI)

- stoichiometry N: 2
Substance: LmrR_V15aY (enzyme)

Reference: article PMC12015630
